Assay results from patent publication US20250043319A1, “BIOSYNTHESIS OF CYCLOLAVANDULYL DERIVATIVES OF AROMATIC COMPOUNDS” (Invizyne Technologies, Inc., priority 2022, published 2025).

Tests used:
Format in all cases: biochemical
Conditions in all cases: cell-free reaction with CLDS and DMAPP (CLPP donor), 28° C., 48 hours, QTOF LC/MS, with vs without prenyltransferase
[1] = cell-free cyclolavandulylation activity screening of prenyltransferases, substrate tryptamine
Description: (§1) Genes encoding the following prenyltransferases were codon-optimized, synthesized, and cloned into the pET28a vector for protein expression and isolation/purification as described in Example 1. • NphB (Accession: 1ZB6_A) (SEQ ID NO: 8) • AbPT (Accession: KPI30840.1) (SEQ ID NO: 9) • SkPT (Accession: Q2L6E3.1) (SEQ ID NO: 10) • SvPT (Accession: WP_078899560.1) (SEQ ID NO: 11) • Sr1310PT (Accession: WP_057602682.1) (SEQ ID NO: 12) • NapT8 (Accession: ABS50461.1) (SEQ ID NO: 13) • NapT9 (Accession: ABS50490.1) (SEQ ID NO: 14) • Mcl23PT (Accession: AGH68908.1) (SEQ ID NO: 15) • CnqP3PT (Accession: WP_047018069.1) (SEQ ID NO: 16) • AtaWTPT (Accession: AMB20850.1) (SEQ ID NO: 17) • MzPT1 (Accession: WP_135330628.1) (SEQ ID NO: 18) • MzPT2 (Accession: WP_135330626.1) (SEQ ID NO: 19) B. Cell-Free Biosynthesis Reaction with CLPP and Various Aromatic Substrates
(§2) The cyclolavandulyl diphosphate synthase, CLDS was prepared as described in Example 1 and used in the synthesis of CLPP.
(§3) Stocks of the various aromatic compounds used as substrates for cyclolavandulylation activity screening were obtained from the following commercial sources: • Resveratrol (Fisher Scientific) 200 mM stock in DMSO • Luteolin (Fisher Scientific) 200 mM stock in DMSO • Naringenin (Fisher Scientific) 200 mM stock in DMSO • Tryptamine (Fisher Scientific) 200 mM stock in DMSO • Tryptophan (Fisher Scientific) 40 mM stock in water • Olivetolic acid (Toronto Research Chemicals) 200 mM stock in DMSO • Divarinic acid (Toronto Research Chemicals) 200 mM stock in DMSO • Phorolic acid (prepared in house) 200 mM stock in DMSO • Olivetol (Fisher Scientific) 200 mM stock in DMSO • Screening for cell-free biosynthesis was carried out as follows. 10 mM DMAPP, 5 mM MgCl2, 100 mM Tris-HCl (pH=8), and 4 mg/mL CLDS (SEQ ID NO: 4) were combined in a 6.80 mL reaction, which was incubated at 28° C. for 48 hours. This mixture was aliquoted into a 96-well plate (80 μL per well). The various prenyltransferases (18 μL, ˜1 g/L final concentration) listed above were screened across various substrates (2 μL of stock solution, variable concentration shown above), which were added to the wells and incubated at 28° C. for an additional 48 hours.
(§4) Analysis of the reaction mixture was carried out as follows: 50 μL of the reaction mixture were added to 1 mL MeOH. The resulting solution was vortexed, centrifuged at 17,200 g for 5 minutes, and transferred to an HPLC vial for analysis. HRMS-QTOF analyses of the cell free reactions was performed on an Agilent Technologies 6545 Accurate Mass QTOF LC/MS with a reverse-phase column (Agilent Infinity Lab Poroshell 120 ECC18, 2.7 μm, 3.0×50 mm) using positive ESI with 1% MeCN—H2O (0.1% FA) for 2 min followed by a linear gradient of 1-99% MeCN—H2O (0.1% FA) for 14 min with a flow rate of 0.4 mL/min.
(§5) Mass spectrometric (MS) analysis of chromatograms was carried out using MassHunter Qualitative Analysis 10.0. Targeted metabolomics using the exact m/z of the calculated proton adduct [H^+] in the presence and absence of prenyltransferase indicated the presence of cyclolavandulylated product.

[2] = cell-free cyclolavandulylation activity screening of prenyltransferases, substrate naringenin
Description: as §1, §2, §3, §4, §5

[3] = cell-free cyclolavandulylation activity screening of prenyltransferases, substrate resveratrol
Description: as §1, §2, §3, §4, §5

[4] = cell-free cyclolavandulylation activity screening of prenyltransferases, substrate luteolin
Description: as §1, §2, §3, §4, §5

[5] = cell-free cyclolavandulylation activity screening of prenyltransferases, substrate tryptophan
Description: as §1, §2, §3, §4, §5

[6] = cell-free cyclolavandulylation activity screening of prenyltransferases, substrate olivetolic acid
Description: as §1, §2, §3, §4, §5

B1: CnqP3PT: prenyltransferase, Accession: WP_047018069.1, SEQ ID NO: 16 (protein, listed as Streptomyces sp.)
chain: MSGAADVERVYSAMEEAARLLDITVSREKVRPALEAYHEVLADAVVVFSMASGRYATELDFSISVPAEAGDPYRVALAKGLTPRTDHPVGRLLADTQEHCPVSMFAFDGEITGGFKKTYAFFPTNDLQSASKLAEIPSMPDSVKENADLFARYGLDKVQMTSIDYKKKAVNLYFSEMSPDILGPDTVRSMLRDMGLKETGETGLTFARRSFSVYPTLNWETGRIERLCFAVISRDPTLAPAERAEDLAKFSKYANNAPYAYAGEARTLVYGLTLTPREEYYKLGSYYQISDIQRKLLKAFDSLND
No: presence of cyclolavandulylated product, Aromatic Compound (Substrate) Tryptamine [1] | presence of cyclolavandulylated product, Aromatic Compound (Substrate) Naringenin [2] | presence of cyclolavandulylated product, Aromatic Compound (Substrate) Resveratrol [3] | presence of cyclolavandulylated product, Aromatic Compound (Substrate) Luteolin [4] | presence of cyclolavandulylated product, Aromatic Compound (Substrate) Tryptophan [5] | presence of cyclolavandulylated product, Aromatic Compound (Substrate) Olivetolic Acid [6]

B2: SkPT: prenyltransferase, Accession: Q2L6E3.1, SEQ ID NO: 10 (protein, listed as Streptomyces sp.)
chain: MPGTDDVAVDVASVYSAIEKSAGLLDVTAAREVVWPVLTAFEDVLEQAVIAFRVATNARHEGDFDVRFTVPEEVDPYAVALSRSLIAKTDHPVGSLLSDIQQLCSVDTYGVDLGVKSGFKKVWVYFPAGEHETLARLTGLTSMPGSLAGNVDFFTRYGLADKVDVIGIDYRSRTMNVYFAAPSECFERETVLAMHRDIGLPSPSEQMFKFCENSFGLYTTLNWDTMEIERISYGVKTENPMTFFARLGTKVEHFVKNVPYGVDTQKMVYAAVTSSGEEYYKLQSYYRWRSVSRLNAAYIAARDKEST
No: presence of cyclolavandulylated product, Aromatic Compound (Substrate) Tryptamine [1] | presence of cyclolavandulylated product, Aromatic Compound (Substrate) Naringenin [2] | presence of cyclolavandulylated product, Aromatic Compound (Substrate) Resveratrol [3] | presence of cyclolavandulylated product, Aromatic Compound (Substrate) Luteolin [4] | presence of cyclolavandulylated product, Aromatic Compound (Substrate) Tryptophan [5] | presence of cyclolavandulylated product, Aromatic Compound (Substrate) Olivetolic Acid [6]

B3: SvPT: prenyltransferase, Accession: WP_078899560.1, SEQ ID NO: 11 (protein, listed as Streptomyces sp.)
chain: MSEASELADIYSAIEETAQLLDVPCSRDKVQPALAAFGDGLADAHIVFSMATGERYKGELAFDFTVPTAAGDPYAIALANGLVEETDHPIRTLFSDVQKRCPVDSYGVDYGIVGGFKKTYISFPLGDLQRLSALVGIPSMPRALAEHADFFASHGLDDKVSAIAIDYAHRTWNVYFSGIPAEVKEPQTLQSVLQKFGLPEPSEQLMDFIRTSFAMYTTFGWDSTKAERICFSARSSDPTALPAQFEPQIGKFAKSAPYTYTGERVLTYAGALSPSEEFYKLATFYQKTSKLSDRVRPAT
No: presence of cyclolavandulylated product, Aromatic Compound (Substrate) Tryptamine [1] | presence of cyclolavandulylated product, Aromatic Compound (Substrate) Naringenin [2] | presence of cyclolavandulylated product, Aromatic Compound (Substrate) Resveratrol [3] | presence of cyclolavandulylated product, Aromatic Compound (Substrate) Luteolin [4] | presence of cyclolavandulylated product, Aromatic Compound (Substrate) Tryptophan [5] | presence of cyclolavandulylated product, Aromatic Compound (Substrate) Olivetolic Acid [6]

B4: Sr1310PT: prenyltransferase, Accession: WP_057602682.1, SEQ ID NO: 12 (protein, listed as Streptomyces sp.)
chain: MSGAADVERVYAAMEEAAGLLDVSCAREKIYPLLTVFQDTLTDGVVVFSMASGRRSTELDFSISVPVSQGDPYATVVKEGLFQATGSPVDELLADTVAHLPVSMFAIDGEVTGGFKKTYAFFPTDDMPGVAQLAAIPSMPASVAENAELFARYGLDKVQMTSMDYKKRQVNLYFSDLKQEYLQPESVVALARELGLRVPGELGLEFCKRSFAVYPTLNWDTGKIDRLCFAAISTDPTLVPSEDERDIEMFRNYATKAPYAYVGEKRTLVYGLTLSSTEEYYKLGAYYHITDIQRQLLKAFDALED
No: presence of cyclolavandulylated product, Aromatic Compound (Substrate) Tryptamine [1] | presence of cyclolavandulylated product, Aromatic Compound (Substrate) Naringenin [2] | presence of cyclolavandulylated product, Aromatic Compound (Substrate) Resveratrol [3] | presence of cyclolavandulylated product, Aromatic Compound (Substrate) Luteolin [4] | presence of cyclolavandulylated product, Aromatic Compound (Substrate) Tryptophan [5] | presence of cyclolavandulylated product, Aromatic Compound (Substrate) Olivetolic Acid [6]

B5: NapT8: prenyltransferase, Accession: ABS50461.1, SEQ ID NO: 13 (protein, listed as Streptomyces aculeolatus)
chain: MEGLYAAIEEASGLLDVAPSRDKVWPILSAYELDKVVVAFRVTTRGSKDLDCRFTALPADVNPYRYAVSKGIAEATDHPVGTLLDDVQANIPVTAHGVDFGVVEGFRKTWTFLPGNDLQKLSKVAALPSMPPSLAENLDFYARYGLDDKNSMIGIDYPSRTVNVYFLQFPDETREPETVRAMLRDLGLPEPSEQMLTLAKQAVGIYTTLTWDSPKIQRITFATLVPDAEALPGRIAVEPSVEKFARNVPHTYPGPVQGLYNVASYSGGEYFKLQTYHQLAEGSLEARVLLGAAGAGS
No: presence of cyclolavandulylated product, Aromatic Compound (Substrate) Tryptamine [1] | presence of cyclolavandulylated product, Aromatic Compound (Substrate) Naringenin [2] | presence of cyclolavandulylated product, Aromatic Compound (Substrate) Resveratrol [3] | presence of cyclolavandulylated product, Aromatic Compound (Substrate) Luteolin [4] | presence of cyclolavandulylated product, Aromatic Compound (Substrate) Tryptophan [5] | presence of cyclolavandulylated product, Aromatic Compound (Substrate) Olivetolic Acid [6]

B6: Mcl23PT: prenyltransferase, Accession: AGH68908.1, SEQ ID NO: 15 (protein, listed as Streptomyces sp.)
chain: MSGETDAEELCSAIEETARLVGAPCSREKIWPILTEYRSGFAEGGVVFSAQAGENHAGELDYGLAVPPRIDDPYAHALAHGFVTETDHPVAALLSDIRERCAVTEHFADCGVVGGFRKLYAHFPRDLQKVSEIADIPSMPRAVAENVGLFTRYGLENVVMVGVNYKNKTVSLYFQFTAEGRPRPSAIRSMLGDIGMTEPNERMLDFASNSFRANITLSWDSPKILRVAFAPPPGAGLNLSTVPIPTGPHLEDFVTRAPRAYDGERMNLFAVKWTQDKEFLEVCSYYQLPAGYEPIRQMEIHKEQG
No: presence of cyclolavandulylated product, Aromatic Compound (Substrate) Tryptamine [1] | presence of cyclolavandulylated product, Aromatic Compound (Substrate) Naringenin [2] | presence of cyclolavandulylated product, Aromatic Compound (Substrate) Resveratrol [3] | presence of cyclolavandulylated product, Aromatic Compound (Substrate) Luteolin [4] | presence of cyclolavandulylated product, Aromatic Compound (Substrate) Tryptophan [5] | presence of cyclolavandulylated product, Aromatic Compound (Substrate) Olivetolic Acid [6]
